Results: patent US20260103496A1, “NEUREGULIN AND USE THEREOF” (ZENSUN (SHANGHAI) SCIENCE & TECHNOLOGY, CO., LTD., priority 2022, published 2026)
Several values for one entry are separate records, joined by “and”; a condition that tells them apart may be missing. Equal values may be shown once.

System: subjects with chronic systolic heart failure
Experiment: Phase III clinical trial of recombinant human neuregulin for injection on cardiac function (LVESVI/LVEDVI), with enriched-subgroup analyses
Type: in vivo
Details: for average improvement in LVEDVI from baseline, enriched population compared with overall (general) population / average improvement in LVESVI from baseline, enriched population compared with overall (general) population: Day 30 after the administration
Procedure: Example 1: A Multi-Center, Randomized, Double-Blind, Placebo-Controlled and Standard Treatment-Based Phase III Clinical Trial to Evaluate the Effect of Recombinant Human Neuregulin for Injection on Cardiac Function of Subjects with Chronic Systolic Heart Failure
In this example, a multi-center, randomized, double-blind, placebo-controlled study was conducted based on standard treatment to evaluate the effects of recombinant human neuregulin for injection on the cardiac function of male patients with NT-proBNP ≤1700 pg/ml and female patients with NT-proBNP ≤4000 pg/ml, and to confirm its efficacy and safety.
A multicenter, randomized, double-blind, placebo-controlled study was conducted based on standard treatment.
Experimental group: recombinant human neuregulin for injection+standard basic treatment drugs (β receptor blocker, ACEI/ARB/ARNI, aldosterone receptor antagonist, etc.).
• 2.1 Age is 18-75 years old, regardless of gender; • 2.2 heart failure has been definitely diagnosed for 3 months or more, and the condition is stable at present, with NYHA II-III grade and left ventricular ejection fraction (LVEF)≤40%; • 2.3 male Nt-proBNP ≤1700 pg/ml, female Nt-proBNP ≤4000 pg/ml; • 2.4 After receiving standard basic treatment drugs for heart failure for 3 months, the target dose or maximum tolerated dose has been reached for more than 1 month, or the dose has not been changed within 1 month; • 2.5 Understand and sign the informed consent form.
Specification: Neucardin, 61 amino acids constitute EGF-like functional domain of Neuegulin-1β2 isomer, with molecular weight of 7054 Dal (1 μg=0.14 nmol); 250 μg/piece. • Dosage Form: Powder Injection • Administration Route: Intravenous Drip • Appearance: freeze-dried block or powder.
5. Data Collection: Evaluating the Effectiveness and Safety During the Screening Period, 30 Days and 90 Days after Administration.
This example was carried out in many clinical research centers in China at the same time. 154 cases were actually enrolled, 78 cases in the Neuregulin experimental group and 76 cases in the placebo group. A total of 147 cases (73 cases in the experimental group and 74 cases in the placebo group) finally achieved the main end points.
Through statistical analysis of the experimental results from Example 1, the inventors investigated, in this Example, the response rate of Neuregulin in improving LVESVI (by more than 13 mL/m^2) in an enriched population. The enriched population refers to patients with a baseline LVESVI ≥135 mL/m^2, accounting for approximately 41% of the total studied population.
Through statistical analysis of the results from Example 1, the inventors investigated, in this Example, the response rate of Neuregulin in improving both LVESVI and LVEDVI (both exceeding 20 mL/m^2) in individual patients of the enriched population.

[1] = 30 days after administration, P<0.05 vs placebo
[2] = baseline LVESVI ≥135 mL/m^2, listed as neuregulin
[3] = enriched population, baseline LVESVI ≥135 mL/m^2
[4] = individual subject, Day 30 vs baseline, FAS

B1: Neuregulin: 61 amino acids constitute EGF-like functional domain of Neuegulin-1β2 isomer, molecular weight 7054 Dal; SEQ ID NO: 1 (protein)
chain: SHLVKCAEKEKTFCVNGGECFMVKDLSNPSRYLCKCPNEFTGDRCQNYVMASFYKAEELYQ
patients with LVESVI reduction (30-day data, compared with baseline): 63%
ΔLVESVI (30 D): −5.62 ± 18.99 ml/m^2
ΔLVESVI (90 D, P=0.0128): −5.23 ± 17.12 ml/m^2
improvement rate: LVESVI decreased by ≥5 ml/m^2 compared with the baseline (30 days after administration): 45.2%
improvement rate: LVESVI decreased by ≥10 ml/m^2 compared with the baseline (30 days after administration): 34.2%
improvement rate: LVESVI decreased by ≥15 ml/m^2 compared with the baseline (30 days after administration): 23.3%
improvement rate: LVESVI decreased by ≥30 ml/m^2 compared with the baseline (30 days after administration): 8.2%
improvement rate: LVESVI decreased by ≥35 ml/m^2 compared with the baseline (30 days after administration): 5.5%
improvement rate: LVESVI decreased by ≥40 ml/m^2 compared with the baseline (30 days after administration): 2.7%
improvement rate: LVESVI decreased by ≥20 ml/m^2 compared with the baseline [1]: 17.8%
improvement rate: LVESVI decreased by ≥25 ml/m^2 compared with the baseline [1]: 15.1%
Increase in LVEDVI at Day 30 compared with the baseline was more than or equal to 5 ml/m^2, n/N(%) (Day 30, FAS): 19/73(26.0) %
Increase in LVEDVI at Day 30 compared with the baseline was more than or equal to 10 ml/m^2, n/N(%) (Day 30, FAS): 14/73(19.2) %
Increase in LVEDVI at Day 30 compared with the baseline was more than or equal to 15 ml/m^2, n/N(%) (Day 30, FAS): 9/73(12.3) %
Increase in LVEDVI at Day 30 compared with the baseline was more than or equal to 20 ml/m^2, n/N(%) (Day 30, FAS): 3/73(4.1) %
Increase in LVEDVI at Day 30 compared with the baseline was more than or equal to 25 ml/m^2, n/N(%) (Day 30, FAS): 3/73(4.1) %
Increase in LVEDVI at Day 30 compared with the baseline was more than or equal to 30 ml/m^2, n/N(%) (Day 30, FAS): 1/73(1.4) %
Increase in LVESVI at Day 30 compared with the baseline was more than or equal to 5 ml/m^2, n/N(%) (Day 30, FAS): 15/73(20.5) %
Increase in LVESVI at Day 30 compared with the baseline was more than or equal to 10 ml/m^2, n/N(%) (Day 30, FAS): 10/73(13.7) %
Increase in LVESVI at Day 30 compared with the baseline was more than or equal to 15 ml/m^2, n/N(%) (Day 30, FAS): 5/73(6.8) %
Increase in LVESVI at Day 30 compared with the baseline was more than or equal to 20 ml/m^2, n/N(%) (Day 30, FAS): 3/73(4.1) %
Increase in LVESVI at Day 30 compared with the baseline was more than or equal to 25 ml/m^2, n/N(%) (Day 30, FAS): 1/73(1.4) %
Increase in LVESVI at Day 30 compared with the baseline was more than or equal to 30 ml/m^2, n/N(%) (Day 30, FAS): 1/73(1.4) %
Reduction in LVEDVI at Day 30 compared with the baseline was more than or equal to 5 ml/m^2, n/N(%) (Day 30, FAS): 43.8% and 32/73(43.8) %
Reduction in LVEDVI at Day 30 compared with the baseline was more than or equal to 10 ml/m^2, n/N(%) (Day 30, FAS): 30.1% and 22/73(30.1) %
Reduction in LVEDVI at Day 30 compared with the baseline was more than or equal to 15 ml/m^2, n/N(%) (Day 30, FAS): 21.9% and 16/73(21.9) %
Reduction in LVEDVI at Day 30 compared with the baseline was more than or equal to 20 ml/m^2, n/N(%) (Day 30, FAS): 17.8% and 13/73(17.8) %
Reduction in LVEDVI at Day 30 compared with the baseline was more than or equal to 25 ml/m^2, n/N(%) (Day 30, FAS): 16.4% and 12/73(16.4) %
Reduction in LVEDVI at Day 30 compared with the baseline was more than or equal to 35 ml/m^2, n/N(%) (Day 30, FAS): 6.8% and 5/73(6.8) %
Reduction in LVEDVI at Day 30 compared with the baseline was more than or equal to 40 ml/m^2, n/N(%) (Day 30, FAS): 5.5% and 4/73(5.5) %
Reduction in LVEDVI at Day 30 compared with the baseline was more than or equal to 30 ml/m^2, n/N(%) (Day 30, FAS, P value of 0.046 vs placebo): 13.7% and 10/73(13.7) %
LVESVI improved compared with that before administration (Day 30 after administration, P=0.0137): 5.62 ml/m^2
average improvement in LVEDVI from baseline, enriched population compared with overall (general) population (baseline LVESVI ≥135 mL/m^2): greater average improvement in LVEDVI
average improvement in LVESVI from baseline, enriched population compared with overall (general) population (baseline LVESVI ≥135 mL/m^2): greater average improvement in LVESVI
average improvement in LVEDVI from baseline, enriched population compared with overall (general) population [2]: better average improvements in LVESVI or LVEDVI than the neuregulin treatment group in the general population
average improvement in LVESVI from baseline, enriched population compared with overall (general) population [2]: better average improvements in LVESVI or LVEDVI than the neuregulin treatment group in the general population
LVESVI and LVEDVI: Simultaneous increase by more than or equal to 5 ml/m^2, n/N(%) (Day 30 vs baseline, FAS): 13/73(17.8) %
LVESVI and LVEDVI: Simultaneous increase by more than or equal to 10 ml/m^2, n/N(%) (Day 30 vs baseline, FAS): 9/73(12.3) %
LVESVI and LVEDVI: Simultaneous increase by more than or equal to 15 ml/m^2, n/N(%) (Day 30 vs baseline, FAS): 3/73(4.1) %
LVESVI and LVEDVI: Simultaneous increase by more than or equal to 20 ml/m^2, n/N(%) (Day 30 vs baseline, FAS): 2/73(2.7) %
LVESVI and LVEDVI: Simultaneous increase by more than or equal to 25 ml/m^2, n/N(%) (Day 30 vs baseline, FAS): 1/73(1.4) %
LVESVI and LVEDVI: Simultaneous increase by more than or equal to 30 ml/m^2, n/N(%) (Day 30 vs baseline, FAS): 1/73(1.4) %
persistence of the LVESVI improvement effect (after 10-day administration, P=0.0128 at Day 90): could be maintained until Day 90 after the administration
response rate for a substantial improvement in LVESVI (a reduction of more than 13 mL/m^2) [3]: 50%
response rate for both LVESVI and LVEDVI decreased by more than 20 mL/m^2, compared with placebo group [3]: significantly higher than that in the placebo group
response rate for both LVESVI and LVEDVI reduced by ≥20 mL/m^2, enriched population compared with overall (general) population [3]: higher than that in the overall population
response rate for simultaneous improvements in both LVESVI and LVEDVI greater than 20 mL/m^2 (enriched population, baseline LVESVI ≥135 mL/m^2, individual subjects): 26.5%
response rate for both LVESVI and LVEDVI reduced by ≥20 mL/m^2, enriched population compared with overall (general) population (enriched population, baseline LVESVI ≥135 mL/m^2, listed as neuregulin): better response rate
LVESVI and LVEDVI: Simultaneous reduction by more than or equal to 5 ml/m^2, n/N(%) [4]: 37.0% and 27/73(37.0) %
LVESVI and LVEDVI: Simultaneous reduction by more than or equal to 10 ml/m^2, n/N(%) [4]: 23.3% and 17/73(23.3) %
LVESVI and LVEDVI: Simultaneous reduction by more than or equal to 15 ml/m^2, n/N(%) [4]: 19.2% and 14/73(19.2) %
LVESVI and LVEDVI: Simultaneous reduction by more than or equal to 25 ml/m^2, n/N(%) [4]: 12.3% and 9/73(12.3) %
LVESVI and LVEDVI: Simultaneous reduction by more than or equal to 30 ml/m^2, n/N(%) [4]: 6.8% and 5/73(6.8) %
LVESVI and LVEDVI: Simultaneous reduction by more than or equal to 35 ml/m^2, n/N(%) [4]: 4.1% and 3/73(4.1) %
LVESVI and LVEDVI: Simultaneous reduction by more than or equal to 40 ml/m^2, n/N(%) [4]: 1.4% and 1/73(1.4) %
LVESVI and LVEDVI: Simultaneous reduction by more than or equal to 20 ml/m^2, n/N(%) (individual subject, Day 30 vs baseline, FAS, p-value 0.0048 vs placebo): 16.4% and 12/73(16.4) %
